Experimental data taken from patent US7244577.

Biological target: low-density lipoprotein (LDL) particles, 125I-labelled
Assay: cell-based or functional assay

| uptake of 125I-LDL by FH fibroblasts infected with LDL-receptor adenovirus [fold] | uptake of 125I-LDL by FH fibroblasts infected with LRP5 adenovirus [% increase] | Substance |
| --- | --- | --- |
| 20 | – | LDL-receptor (from UniProt P01130 22-860) (receptor; the values are: fold increase in LDL uptake) |
| – | 60 | human LDL-receptor related protein-5 (LRP5), isoform 1 (from UniProt O75197 32-1615) |
